From patent US20260347481 (published 2026)
Non-standard residues stand in square brackets, D forms with d. No end group written: not given here. *: point of attachment. Biotin = O=C1N[C@H]2[C@H](CS[C@H]2CCCCC(=O)*)N1; Arg(Me2a) = CN(C)C(=N)NCCC[C@H](N)C(=O)O

T1: Target peptide (meEGFR R198/R200) (human, cysteine pairing not given here)
T1 chain: K(Biotin)QCSG[Arg(Me2a)]C[Arg(Me2a)]GKSPSDC-NH2


Biological target: T1, Target peptide (meEGFR R198/R200)

EC50	Binder
0.0258 nM	Example 3 (antibody, V domains shown) VH: QVQLQESGPGLVKPSGTLSLTCAVSGDSISSSSYYWGWIRQPPGKGLEWIGSIYYSGSTYYNPSLKSRVTISVDTSKNQFSLKLSSVTAADTAVYYCAREWNGLDVWGKGTLVTVSS VL: LNFMLTQPHSVSESPGKTVTISCTGSSGSIASNYVQWYQQRPGSAPTTVIYEDNQRPSGVPDRFSGSIDSSSNSASLTISGLKTEDEADYYCQSYDRGNTEVMFGGGTKVTVLG
0.0359 nM	Example 2 (antibody, V domains shown) VH: QVQLQESGPGLVKPSETLSLTCSVSGDSITRSGYYWAWVRQSPGKGLEYIGSISYSGTTYYNPSLKSRVTISVDTSKNQFSLKLSSVTAADTAVYYCAREWNGLDVWGKGTMVTVSS VL: LNFMLTQPHSVSESPGKTVTISCTRSSGSIASNYVQWYQQRPGSSPTTVIYEDNQRPFGVPDRFSGSIDSSSNSASLTISGLKTEDEADYYCQSYDSGHQIFGGGTKLTVLG
